Source: article doi:10.1101/2021.01.12.426377 (bioRxiv, 2021)

Columns and labels:
[1] = molecular target: T1, FtsA(E14R) (E. coli, UniProt P0ABH0 1-420, E14R); experiment: co-sedimentation
T1 sequence: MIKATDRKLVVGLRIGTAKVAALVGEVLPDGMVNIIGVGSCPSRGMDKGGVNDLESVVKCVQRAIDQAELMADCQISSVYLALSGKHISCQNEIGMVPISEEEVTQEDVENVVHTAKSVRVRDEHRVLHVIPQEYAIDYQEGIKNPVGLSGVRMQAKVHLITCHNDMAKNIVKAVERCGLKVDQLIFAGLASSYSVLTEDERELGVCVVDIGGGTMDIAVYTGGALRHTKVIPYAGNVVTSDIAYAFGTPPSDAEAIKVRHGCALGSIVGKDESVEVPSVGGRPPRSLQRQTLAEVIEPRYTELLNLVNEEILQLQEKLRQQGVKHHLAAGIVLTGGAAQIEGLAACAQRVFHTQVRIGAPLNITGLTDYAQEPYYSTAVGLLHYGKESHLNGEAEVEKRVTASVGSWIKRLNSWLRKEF

[2] = molecular target: the molecule itself; experiment: negative-stain transmission electron microscopy

B1: FtsZ (Escherichia coli, wild type) (natural protein)
chain: MFEPMELTNDAVIKVIGVGGGGGNAVEHMVRERIEGVEFFAVNTDAQALRKTAVGQTIQIGSGITKGLGAGANPEVGRNAADEDRDALRAALEGADMVFIAAGMGGGTGTGAAPVVAEVAKDLGILTVAVVTKPFNFEGKKRMAFAEQGITELSKHVDSLITIPNDKLLKVLGRGISLLDAFGAANDVLKGAVQGIAELITRPGLMNVDFADVRTVMSEMGYAMMGSGVASGEDRAEEAAEMAISSPLLEDIDLSGARGVLVNITAGFDLRLDEFETVGNTIRAFASDNATVVIGTSLDPDMNDELRVTVVATGIGMDKRPEITLVTNKQVQQPVMDRYQQHGMAPLTQEQKPVAKVVNDNAPQTAKEPDYLDIPAFLRKQAD
[1]
  binding result: binds
[2]
  binding result: binds
